{
  "source": "the supplement of paper PMC12764529",
  "note": "± gives the half width of the 95% confidence interval.",
  "data": [
    {"assay": "folding stability dG unfold (combined trypsin and chymotrypsin); higher = more stable", "procedure,_shortened": "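Unfolding free energy was derived, per protease or combined, against a sequence-predicted unfolded-state K50 and a shared folded-state K50, starting from K50 inferred by Bayesian fitting of sequencing counts. Digestion with trypsin and chymotrypsin was carried out on designed mini-proteins under 80 residues without cysteine in a PA-tagged cDNA display construct. Only designs with AlphaFold2 dimer inter-PAE above 15 were kept.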", "units": {"folding stability dG unfold": "kcal/mol"}, "values": [
      {"sequence": "SMKVEIEEEVEGDRITLTIKFDDEEEAEKAIKELAKELGIPMKVLSRESEKLPGGEYKLTITGEVPPDLKSA [r9_102_JUSTAS]", "folding stability dG unfold": "0.529 ± 0.24"},
      {"sequence": "DDNQEYEYENPGGMKMRVEYNPSTGNMKVEMEPVPPVPPIPPIMIPLDLTPEQANRLINELQDLGIPIMVGS [r1_242_TrROS]", "folding stability dG unfold": "1.16 ± 0.16"},
      {"sequence": "SAGMPDVPPVPRTFRLEIEIEVPAEDPELARELAEEIREEIRRLGAVRTEVEIDPEPGRVRVRVEFVEGSAG [r5_512_TrMRF]", "folding stability dG unfold": "1.48 ± 0.043"},
      {"sequence": "SAGGSAGGSAGGLKDALENGYVMIDFEIYNPPNGEPIGEITIMVKVPKPEPDEDGNWQLVSAGGSAGGSAGG [r7_959_TrROS]", "folding stability dG unfold": "1.26 ± 0.16"},
      {"sequence": "SAGGSAELAKALGLKVTVEVEEEDGYLTVKVTVTGPNGEEKTFTMVIKIEPLPPPKKVKKGDKKNKSAGGSA [r15_843_TrROS_Hall]", "folding stability dG unfold": "3.62 ± 0.21"},
      {"sequence": "SAGMELKVEIVAPKEVLLEKVKELEATIKKAFPKVKVEVEAKIEPLEGDEWKATVVIKIEPLPEDEPAESAG [r5_936_TrMRF]", "folding stability dG unfold": "3.91 ± 0.78"},
      {"sequence": "SAGGSAGGSAGGMPLTLTSETVTVERDPTSNNVVTTTTTTYKLPNGTLVTVTTTTTSPTTSAGGSAGGSAGG [r7_267_JUSTAS]", "folding stability dG unfold": "2.33 ± 0.06"},
      {"sequence": "SAGGIIIYPKDPDGKQRPIPPEVIRRIVDTIARRYGFEIKIDIEIEPTNDYWVITIPIEIEGLPPEQLSAGG [r13_790_TrROS]", "folding stability dG unfold": "2.18 ± 0.086"},
      {"sequence": "SAGGSAGGSAGGKIKDAEIVSVEYDPETGVLYMEVKLEDGSTYRIRFDLKTNKLTIEPVSAGGSAGGSAGGS [r10_674_TrROS_Hall]", "folding stability dG unfold": "4.56 ± 0.3"},
      {"sequence": "MEITITETENGYRVEVKIEITVIDPKTGEPVPLEIPVEAFVPASDPDPEKAAKEAAEKALEEVLKALPEGLS [r1_414_JUSTAS]", "folding stability dG unfold": "1.99 ± 0.19"},
      {"sequence": "SAGGLRVHPNSLYIWIPPGGNFDDFVKEIAQELQKKGKPMEIKVEPFPDGWYWIRIKVDGKDIEIWMSAGGS [r16_771_TrROS]", "folding stability dG unfold": "3.02 ± 0.1"},
      {"sequence": "SAGGSAGGSAFTIHDLKLNKVEVHPDGTVTYHLEVTLPSGEKLKVVVLVDPRKPSLATFYFSSAGGSAGGSA [r18_97_TrMRF]", "folding stability dG unfold": "2.94 ± 0.13"},
      {"sequence": "SAGGKVFTPEHLEELLKNVPADDPNATLTVTVEVPVVVLPTTDGDDNPLPAAAAPATVTLPITVLPASAGGS [r16_708_TrMRF]", "folding stability dG unfold": "0.837 ± 0.07"},
      {"sequence": "SAGGGSAWKVTAENLPADGYVKFPDGTTVPPGTELTVPLSAGYTDIRALDPEGNVVSVELVPLPEPKLSAGG [r13_441_JUSTAS]", "folding stability dG unfold": "-0.187 ± 0.18"},
      {"sequence": "SAGGSAKKLPAEAVAKELAERLSKELGLTIKRVEVEVIDPEKGLVRVTVVYETPYGYLKREILLPVSAGGSA [r15_32_TrMRF]", "folding stability dG unfold": "3.31 ± 0.1"},
      {"sequence": "SAGAMVTHTITVKIDPSELDKLEEILEKIKNSGPVKAIEPVSFEPGTGVYTVKVTADPATIKLVEEALKSAG [r5_193_JUSTAS]", "folding stability dG unfold": "4.24 ± 0.069"},
      {"sequence": "SAGGSAGGSAGGMYFIRIKPPNGEELVILIPPGDEIKIKDADGRPWKITDVYPMPPEQFSAGGSAGGSAGGS [r10_422_TrROS]", "folding stability dG unfold": "0.0506 ± 0.41"},
      {"sequence": "SAGGSAGGSAGGFTIKIETRPMPMFSKDGKPLAEMNMYRIKIEVPDMPPGLADKLIDLIQSAGGSAGGSAGG [r7_450_TrROS]", "folding stability dG unfold": "2.67 ± 0.22"},
      {"sequence": "SAGGSADYVFVRIEVRDPKNKQPMSIMIPVPPDMTPDEAIEEAEMIANTFKEKGLEITVEVEPMPPSAGGSA [r15_268_TrROS]", "folding stability dG unfold": "1.45 ± 0.22"},
      {"sequence": "SAGGSAGGSGSVEFETDLKDPNIRKAIEEALKEGKKTAVIPFPDGAEGRIVEVEGDKVRVEISSAGGSAGGS [r12_334_TrMRF]", "folding stability dG unfold": "0.838 ± 0.12"},
      {"sequence": "SAGGSAGGSAGMEVILLEVDSEEEAEKLVKELSEKYGYPVKVEKDPENPKLVTLTIEKPKSAGGSAGGSAGG [r11_797_JUSTAS]", "folding stability dG unfold": "1.36 ± 0.067"},
      {"sequence": "SAGGSISIPVYSPEDVIEAIEFIERYLREKGFPENEEATRIIVERLEDGRYRVIIEYPTRTIIIDDSAGGSA [r2_120_TrMRF]", "folding stability dG unfold": "3.01 ± 0.067"},
      {"sequence": "SAGGSAGGSAGGSMTLKVTLTPPSGEVVEFEITEEELDKLKEELPEDWSISTEPIPELESAGGSAGGSAGGS [r4_63_JUSTAS]", "folding stability dG unfold": "2.29 ± 0.051"},
      {"sequence": "SAAKITEVDVEVGGDTITTTFRLEIDGKPYLAVTRLEPLTDPDGNPRFIAVTELYDEDGNLVATLPSDLSAG [r14_465_TrMRF]", "folding stability dG unfold": "2.06 ± 0.059"},
      {"sequence": "SAGFVMIKIELENPGNGKERELSIIIPYKSQEDARHIAEEIARELAKNGWKIKKIEVMVMPIPPPPDDPSAG [r5_660_TrROS]", "folding stability dG unfold": "5.1 ± 0.24"},
      {"sequence": "SAGGSAGGSAGGPEEPEKLTLRVTLTFYNPETQEPVEEVEVEITLTAEDLKEGKITITPSAGGSAGGSAGGS [r10_672_TrROS_Hall]", "folding stability dG unfold": "2.32 ± 0.13"},
      {"sequence": "SAGGSAGGSAAPTNPVEITLKRPDGTPVKATITFYPDGVKVTVEDGDTTTTSWLSPEEITLSAGGSAGGSAG [r3_373_JUSTAS]", "folding stability dG unfold": "1.89 ± 0.03"},
      {"sequence": "SAKIVVKLPEKPKVAVIEFPPGMTKEEILKALEEVPGLSEEEREALKKKIEELEALAKNPELLKKLEEESAG [r14_732_TrROS_Hall]", "folding stability dG unfold": "0.797 ± 0.12"},
      {"sequence": "SAGGSAGGEIRERLRELIEQLPEEELVVRIRRNGEEVELTFRTREDLEAALEANPEAEIEIVRRSAGGSAGG [r6_421_TrROS_Hall]", "folding stability dG unfold": "3 ± 0.058"},
      {"sequence": "MEVKIKVEIVKVEEVEVKKKKDGKEEKFIRIEIKIEVEAKPGLSEEEIKKLAEELAKKLKELGLEVEVKKES [r1_305_TrROS_Hall]", "folding stability dG unfold": "1.96 ± 0.22"},
      {"sequence": "SGMKSVTTPVSLTINTSPEEAEEFIEKLAKERGIEDVTVVKVTTDPATGTLTVEAELHTTIPPLPPPSSVSA [r9_918_JUSTAS]", "folding stability dG unfold": "1.1 ± 0.27"},
      {"sequence": "SAGGSAGGSMTIEEIKKLAEELGIEKVEIEKVKDGYYKIKIYNKKTGKKIEIIIKVNKDGKIVSAGGSAGGS [r12_170_TrROS_Hall]", "folding stability dG unfold": "3.61 ± 0.26"}
    ]}
  ]
}
